Data on 5 molecules can be found in US20110189084A1, “Method for Treating Liver Disorders with Receptor Associated Protein (RAP) Peptide-Fucosidase Inhibitor Conjugates” (RAPTOR PHARMACEUTICAL INC., priority 2010, published 2011).

Bridge positions count the residues as written; N and C are the ends. Ends that are not written are not given here.

The target of data set [1] is T1, human liver alpha-L-fucosidase (Homo sapiens, UniProt P04066).
T1 sequence (P04066 32-466): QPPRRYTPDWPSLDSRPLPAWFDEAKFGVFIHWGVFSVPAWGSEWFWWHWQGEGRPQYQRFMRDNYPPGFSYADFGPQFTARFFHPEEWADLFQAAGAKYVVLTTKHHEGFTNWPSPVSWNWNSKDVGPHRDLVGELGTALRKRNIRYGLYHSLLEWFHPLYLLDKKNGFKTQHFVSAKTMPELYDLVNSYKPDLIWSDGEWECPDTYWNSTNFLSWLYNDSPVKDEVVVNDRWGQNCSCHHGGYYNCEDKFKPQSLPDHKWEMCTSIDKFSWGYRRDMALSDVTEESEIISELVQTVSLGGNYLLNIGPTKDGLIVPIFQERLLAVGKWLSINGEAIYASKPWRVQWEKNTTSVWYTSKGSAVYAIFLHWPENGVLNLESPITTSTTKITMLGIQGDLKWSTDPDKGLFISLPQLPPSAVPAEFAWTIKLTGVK
To be noted: ref [12]; cited from earlier work.

The target of data set [2] is T2, lysosomal fucosidase (Homo sapiens, UniProt P04066).
T2 construct: Fucosidase activity in 20 μL of each lysate sample was measured; endogenous in cells; host or cells: HepG2
T2 sequence (P04066 32-466): T1 sequence (P04066 32-466)
The experiment in a line: fucosidase activity in lysates of treated HepG2 cells (4-MU-fucopyranoside). The format is cell-based. Conditions: 72 hours, versus buffer.
Method: HepG2 human hepatocellular carcinoma cells were seeded in 6-well tissue culture plates at 4×10^5 per well. […] Cells were then washed with cold PBS, scraped into a microfuge tube, pelleted and lysed. Total protein concentration was determined by Bradford assay for each sample and lysate volumes adjusted to 0.3 mg/mL. Fucosidase activity in 20 μL of each lysate sample was measured by adding 100 μL of 0.5 mM 4-MU-fucopyranoside with subsequent incubation at 37° C. for 30 minutes. Reactions were quenched with 130 μL of 600 mM citrate/carbonate buffer at pH 9. Released 4-MU was assayed in a fluorescence microplate reader (see Example 1 above). […] Duplicate sample activity values were averaged and plotted.

For data set [3] the following is noted: cited from earlier work.
For data set [4] the following is noted: intravenously administered, rodent and feline species; cited from earlier work.
The target in data set [5] is T3, LRP1 (Homo sapiens, UniProt Q07954).
T3 sequence (Q07954 786-1165 limits assumed): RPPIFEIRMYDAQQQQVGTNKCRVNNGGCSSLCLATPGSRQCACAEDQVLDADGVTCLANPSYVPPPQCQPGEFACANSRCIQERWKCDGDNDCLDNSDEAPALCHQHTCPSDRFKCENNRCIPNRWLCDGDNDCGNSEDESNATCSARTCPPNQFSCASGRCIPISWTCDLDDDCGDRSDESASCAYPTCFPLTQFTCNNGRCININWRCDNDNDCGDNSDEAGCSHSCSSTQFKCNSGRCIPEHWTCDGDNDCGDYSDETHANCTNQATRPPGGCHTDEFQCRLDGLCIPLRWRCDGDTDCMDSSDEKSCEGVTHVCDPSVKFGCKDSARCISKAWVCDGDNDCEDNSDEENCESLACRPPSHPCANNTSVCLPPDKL
To be noted: read-out: affinity for LRP1; cited from earlier work.

`CCCCN1C[C@H](O)[C@@H](O)[C@H](O)[C@H](C(=O)O)C1` [Faz, (3R,4R,5S,6S)-1-butyl-4,5,6-trihydroxyazepane-3-carboxylic acid]: in data set [1], the “potency of fucosidase inhibition” value is given as “low nanomolar range”.

On to `C[C@@H]1NC[C@@H](O)[C@H](O)[C@@H]1O` [L-deoxyfuconojirimycin], for which the inhibition (as a rule, the drop in the measured response relative to a control, in per cent) at 30 µM in data set [2] is greater than 50%. Turning to “RAP: mature receptor associated protein, 323 amino acid peptide, SEQ ID NO: 1”, in data set [3] (injected RAP, intravenous), the circulating half-life result is “less than a minute”. For the same molecule, the “exogenous RAP accumulating in the liver” value in data set [3] (intravenous bolus injection of 30 picomoles, within 10 minutes) is on record as “over 70%”. Also, the “accumulation in heart, brain, muscle or kidney” value in data set [3] (intravenous) is given as < 1 % of injected dose. The toxicity result in data set [4] is given as “no measurable toxicity”. Consider “mRAP14c: RAP residues 250-309 with substitutions F250C, L308G and Q309C (CEAKIEKHNHYQKQLEIAHEKLRHAESVGDGERVSRSREKHALLEGRTKELGYTVKKHGC; disulfide 1-60 (inferred))”, for which the Kd in data set [5] was roughly 21 nM.

B1: mRAPc: RAP d3 with the modifications A242G, R314G, E241C and I315C (peptide)
chain: CGFREELKHFEAKIEKHNHYQKQLEIAHEKLRHAESVGDGERVSRSREKHALLEGRTKELGYTVKKHLQDLSGGC
On to B1, for which the Kd in data set [5] is roughly 10 nM.
